Experimental data taken from the supplement of paper PMC9170038.

Test system: MS2 coat protein
Experiment: apparent KD of MS2 coat protein; higher = weaker reporter binding
Conditions: Eterna round: R107
Outline: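 Each design's apparent KD comes from the median of binding-curve fits to its normalised clusters. Those clusters carried RNA switches transcribed on-chip from Illumina sequencing clusters. SNAP-549-labelled MS2 coat protein was titrated onto them in twofold steps (0.7 or 1.5 nM to 3 µM; per step 0.8–1.5 h down to 10–20 min). Conditions were 100 mM Tris-HCl pH 7.5, 80 mM KCl, 4 mM MgCl2, without or with constant ligand.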

[1] = input ligand: theophylline 20 uM
[2] = input ligand: theophylline 2 mM
[3] = input ligand: tryptophan 2.4 mM

Sequence	apparent KD of MS2 coat protein (input ligand: arginine 13.2 mM)	apparent KD of MS2 coat protein [1]	apparent KD of MS2 coat protein [2]	apparent KD of MS2 coat protein (input ligand: none)	apparent KD of MS2 coat protein [3]
UACUUGCUGACGGCCGCCACUAGAACAUGAGGAUCACCCAUGUACCCGGUCCUACAUGGGAUGACUAGGACCGGGUCAGCAAGAU [(Trp1)-(Ms2)-(T)'-(M)'-(Trp2)_Design3]	39.6 nM	72.4 nM	68.5 nM	–	–
UAGUUGUAGUCGGCCGCCACUGUGAGCAUGGUUAACAUGAGGAUCACCCAUGUCCCGUACUAUAACAGGACCGGGACGUAGUUGC [#10 Same State - Tryptophan B]	31.1 nM	79.4 nM	134 nM	–	–
UAUACAUGAGGAUCACCCAUGUGCCAUGAUACCAGACAUGAAAAUGUCCCUUGGCAGCAUGGGAGAUGUAUAGCGGGAAACCCGA [Turany]	22.4 nM	198 nM	677 nM	38.9 nM	42.6 nM
UAUACAUGGGAUACCAUGGAUCCGAGUGAUACCAGCUAUCCGAAUAGCCCUUGGCAGCACAGUACAUGAGGAUCACCCAUGUAUA [Theo A SS t5]	27.8 nM	30.2 nM	–	–	18.6 nM
UAUAUAUAACAUGAGGAUCACCCAUGUAAACGAGGACCGGUACGGCCGCCACUCGGCCGGCAAGGGAGAGGACGGGAAACCGUCG [ETA NP+V+V2 #26]	12.1 nM	23.1 nM	23 nM	12.8 nM	24.4 nM
UAUAUAUAUCACGAACUGUGGUGUAUGUCCCGAGGACCGGUACGGCCGCCACUCGCGUGGUUCCACAUGAGGAUCACCCAUGUUG [XTryp A #7]	20.9 nM	31.3 nM	25.9 nM	–	–
UAUCCACAUGAGGAUCACCCAUGUAGGGAAGGAGCGGUGAUUUCACCAGGUAGGUCGCCUUGCUGAGGGUUGCCGGUGGAAUCGU [Exclusion - Arginine A (Freestyle 33)]	12.5 nM	14.8 nM	13.1 nM	15.7 nM	16.2 nM
UAUCCACAUGAGGAUCACCCAUGUUAGGAAGGAGCGGUGAAUGAACCAGGUAGGUCGCCUAGCUGAGGACCAUCAAUGGAUUCGU [Exclusion - Arginine A (Freestyle 14)]	18.1 nM	35.4 nM	36.8 nM	31.8 nM	38.1 nM
UAUCCACAUGAGGAUCACCCAUGUUAGGAAGGAGCGGUGAAUGAACCAGGUAGGUCGCCUAGCUGAGGACCAUCGAUGGAUUCGU [Exclusion - Arginine A (Freestyle 15)]	17 nM	25.5 nM	27.5 nM	20.3 nM	20.1 nM
UAUCGUCAGACGGCCGCCACUAGAACAUGAGGAUCACCCAUGUAGGCGGCCGAUUCCUCAUGAACUAGGACCGGGUCUGACGAAU [(Trp1)-(Ms2)-(T)'-(M)'-(Trp2)_Design12]	8.18 nM	26 nM	8.89 nM	6.6 nM	13.3 nM
UCAAGUGAACCAUGGAAACAUUCAAUAGAUACCAGCAUUAAAACCUGCCCUUGGCAGCUAUGAACAUGAGGAUCACCCAUGUGAA [theeternabot_exclusion_MS2_Theo_A_21]	17.3 nM	23.3 nM	–	–	19.2 nM
UCGACAAGAACAAUAAACAGCACUUGAGAAGGAGCGCGGAAAUCCGCAGGUAGGUCGCUCAUGUGUACAUGAGGAUCACCCAUGU [Inveonxeed]	32.6 nM	49.3 nM	40.8 nM	39.7 nM	34.5 nM
UCGCGAUAGAGAAGGAGCGUCAACACCACUUAACAUGAGGAUCACCCAUGUGUUACUUUGUGACAGGUAGGUCGCUCUAGCGCUU [JR_Nu_ExcArginiB_Sub026]	21.1 nM	25.3 nM	20.9 nM	19.3 nM	18.4 nM
UCGCUCUGGGUGAAUCCCAGAGAUAUGGAAGGAGCGGACGAAAGUCCAGGUAGGUCGCCAUCGAACAUGAGGAUCACCCAUGUAC [Same State - Arginine A (Freestyle 27)]	62.1 nM	57.8 nM	76.6 nM	47.6 nM	76.8 nM
UCGUUUUAGUCGGCCGCCACUGUAUGCAUGUUUAACAUGAGGAUCACCCAUGUCCCGUACUAUUUCAGGACCGGGACGUAAUCGA [JR_SSTryptoB_Sub007]	140 nM	301 nM	484 nM	–	–
UCGUUUUAGUCGGCCGCCACUGUGAGCAUGGUUAACAUGAGGAUCACCCAUGUCCCGUACUAUAACAGGACCGGGACGUAGUUGC [#09 Same State - Tryptophan B]	76.4 nM	109 nM	253 nM	–	–
UCUUUCUAUUGUGAUACCAGACGUACAUGAGGAUCACCCAUGUUUCAUUCUUGUUUUAAAGUCCCUUGGCAGCACUAUUUGUUCG [JR_Nu_ExcTheophyB_Sub028]	19.6 nM	23.9 nM	–	–	15.9 nM
